The results in this text go back to patent US5871960, “Nucleic acids encoding CR5 polypeptide, vector and transformed cell thereof, and expression thereof” (Trustees of Dartmouth College).

Data set [1] has as its target T1, daughterless (da) bHLH domain (Drosophila melanogaster, UniProt P11420 P11420:554-607).
T1 sequence: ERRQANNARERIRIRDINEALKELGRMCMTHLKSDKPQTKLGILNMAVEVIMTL
The data set is described as follows: EMSA; positive control. The note with it: tags: supplied by Dr. Michael Caudy, Cornell University Medical College; label: 32P 5' end; 5' GATC overhangs. An excerpt:
(§1) The oligonucleotide probes used for the electrophoretic mobility shift assay (EMSA) are as follows: the Class A site used was the CACCTG hexamer (CAGGTG for the opposite strand) from the T5 promoter region of the Drosophila AS-C (Villares, R. et al. (1987) *Cell* 550:415–424) (5'-[…]-3' (SEQ ID NO:17) and 5'-[…]-3' (SEQ ID NO:18) for the opposite strand), the Class B site was the CACGTG hexamer from the USF binding site in the adenovirus major late promoter (Gregor, P. D. et al. (1990) *Genes & Dev.* 4:1730–1740) (5'-[…]-3' (SEQ ID NO:19) and 5'-[…]-3') (SEQ ID NO:20), the Class C site was the CACGCG hexamer (CGCGTG for the opposite strand) from the AS-C T5 promoter (5'-[…]-3' (SEQ ID NO:21) and 5'-[…]-3') (SEQ ID NO:22), and the N-box (CACNAG) was the double hexamer sequence from the Enhancer of split [E(spl)] m8 promoter (Klimbt, C. et al. (1989) *EMBO J.* 8:203–210) (5'-[…]-3' (SEQ ID NO:23) and 5'-[…]-3' (SEQ ID NO:24). One strand of the oligonucleotide was labeled with [g-32P]ATP by T4 polynucleotide kinase, hybridized with three times excess of the opposite strand, and purified using MERmaid oligonucleotide purification kit (BIO 101). […] Samples were analyzed on a 5% native polyacrylamide gel and visualized by autoradiography.
(In general: In EMSA bound probe runs differently from free probe, usually more slowly.)

The target of data set [2] is T2, CR8 bHLH domain (BHLHE40/DEC1) (human, UniProt O14503 SEQ:52-107).
T2 chain: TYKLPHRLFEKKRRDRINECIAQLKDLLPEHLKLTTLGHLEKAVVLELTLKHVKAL
The experiment in a line: EMSA; same buffer. The note with it: tags: N-terminal His tag (pRSET-A, Xpress System), 16.6 kD with tag; chain copies: 2 (homodimer, stated); label: 32P 5' end; 5' GATC overhangs.
Description: as §1

The target of data set [3] is T2, CR8 bHLH domain (BHLHE40/DEC1). The data set is described as follows: EMSA; 20 mM Hepes pH 7.6, 50 mM KCl, 10 mM DTT, poly(dI-dC), room temperature; self-competition partial at 50-fold and complete at 500-fold excess. The note with it: tags: N-terminal His tag (pRSET-A, Xpress System), 16.6 kD with tag; chain copies: 2 (homodimer, stated); label: 32P 5' end; 5' GATC overhangs. The procedure: One strand of the oligonucleotide was labeled with [g-32P]ATP by T4 polynucleotide kinase, hybridized with three times excess of the opposite strand, and purified using MERmaid oligonucleotide purification kit (BIO 101). 150 ng of the protein was allowed to bind to 50,000 cpm (equivalent to 0.5 ng in a typical experiment) of the labeled probe for 15 min at room temperature in 20 mM Hepes, pH 7.6, 50 mM KCl, 10 mM DTT, 5% glycerol, 0.5 mM EDTA and 0.3 mg/ml BSA. Two microgram of poly (dI-dC) was added to each […] reaction as on-specific DNA. Samples were analyzed on a 5% native polyacrylamide gel and visualized by autoradiography.
To examine the relative binding affinity, a large excess of non-labeled oligonucleotide was added to the reaction as competitor. […] 0.5 ng of the radiolabeled Class B probe was incubated with CR8 bHLH in the absence (lane 1) or the presence (lanes 2 to 7) of either 25 ng (50-fold excess; lanes 2, 4 and 6) and 250 ng (500-fold excess; lanes 3, 5 and 7) of unlabeled competitors. […] Thus, since all these experiments were done in the absence of other HLH proteins, it appears that CR8 bHLH bound to the Class B sequence as a homodimer with the highest affinity.

B1: Class A E-box probe (AS-C T5 promoter) (dsDNA)
DNA 1: GATCGTAGTCACGCAGGTGGGATCCCTA
DNA 2: GATCTAGGGATCCCACCTGCGTGACTAC
Consider B1, for which the binding result is given as “binds” in data set [1] and “no binding” in data set [2].

B2: Class B E-box probe (USF site, adenovirus major late promoter) (dsDNA)
DNA 1: GATCGGTGTAGGCCACGTGACCGGGTGT
DNA 2: GATCACACCCGGTCACGTGGCCTACACC
On to B2, for which, in data set [3], the binding result is listed as “binds”.

B3: Class C probe (AS-C T5 promoter) (dsDNA)
DNA 1: GATCGGCAGCCGGCACGCGACAGGGCC
DNA 2: GATCGGCCCTGTCGCGTGCCGGCTGCC
In the case of B3, the binding result in data set [2] was “binds”.
